According to the DeepSol protein solubility set:

Test: soluble on expression in E. coli; label from the status in PepcDB or PDB records

Sequence	soluble on expression in E. coli
MGHHHHHHGGHMSLNTISSLETTDLPAAYHIEQRAHAFPWSEKTFASNQGERYLNFQLTQNGKMAAFAITQVVLDEATLFNIAVDPDYQRQGLGRALLEHLIDELEKRGVATLWLEVRASNAAAIALYESLGFNEATIRRNYYPTTDGREDAIIMALPISMEGGS	soluble
MGGSVDFERWFKGPAAIYGGIEYQTPYQPLRLKVEYDSNDYSQDFPVTRGNVDMTQHTPWNFGVLYGLGDWGDIKVSYQRGDTLTLGVNLTTNFNDMKAIWRDEPITAYDESSNQSIDEVDWQRVNQQLNGNAGYEDNRIYADDDSVTLVATQTKYRDSDEAHDRASRIFANHVPETISTYRIIETNQSMPVSETLIDAAQYKKVANNEYFDAKVADASQTDEVTYSPSEHSLKSDNLDRWDYSVSPTLSQSIGSAESFYLYAVGINTAGSVWLTDKVQASGSLYFNLFDNYDKFNYITPPDGTSVPRVRTMFRAYVHENPVRMNNLQLTWFEEYGAGFYSQMYAGYLESMFGGIGSEVMYRPLNSNWAFGIDATYIKQRTPGDWFGFYEQDHQEGGDYGRDYTVVSSGVTGFATAYYAPQWSFLKNTLLKVGVGQFLAGDKGTRIDFSKQFDSGVIAGAYASFTDLSAEEFGEGSYTKGFYISIPFDIMTVKPSKNRANFNWQPLTRDGGQMLNKQHDLYELTDERSPWFTRKGLLEHHHHHH	not soluble
MGSDKIHHHHHHMAWHKLGRVYCADGFADWAQHSFMTPVPVQMSADVIRLYGGMRDDAGISRIGWVDLDAHNPLRVIAVCDAPALDLGEPGMFDDNGVILGDVIRTSEAELRMYYVGFQLVEKAKFLAFTGVAISDASGTRFDRVFPTPVLDRAPEALFINALHSIAQTETGFRAWISCGQRWQDINGRIYPQYNCWTVPSEDGLHFDMRDAVKIMDVNEAEYRIGRPRANRLADGSFELRVTSDTFDKHYSSHLAHSKDGIVFQRSDEVELPRGAPGDWDAEMTCYPARIDTPTGRSYLFYNGNNMGETGVGVAEWQAEA	not soluble
MHHHHHHSSGRENLYFQGSVFGVPLTVNVQRTGQPLPQSIQQAMRYLRNHCLDQVGLFRKSGVKSRIQALRQMNEGAIDCVNYEGQSAYDVADMLKQYFRDLPEPLMTNKLSETFLQIYQYVPKDQRLQAIKAAIMLLPDENREVLQTLLYFLSDVTAAVKENQMTPTNLAVCLAPSLFHLNTLKRENSSPRVMQRKQSLGKPDQKDLNENLAATQGLAHMIAECKKL	soluble
MSLPKITKIEVQKKNKERFNLFLDEQFEMGIDIDTLVKFNLKKGQQLEAADMAEIQKYDHYRIGLNKAIQYLSYKKRTEKEVIQYLQKEEISEQAISEVIEYCYREKLIDHQDYAESLKNTMIRTTDKGPKIYQQKLYQLGIEPNIIEIFTELYREQQELDDIIQIAEKISKTKKGPQNKVKEKVMQSLIQKGFEMETIHAVLNEMDFTQDEAVLDDLLQRDLEKIYNKNRKKYTQQKLISKTIEGLMRKGYKYDKIKAKLEESGIADGTEEIEEGHHHHHH	soluble
MGDKGTRVFKKASPNGKLTVYLGKRDFVDHIDLVEPVDGVVLVDPEYLKERRVYVTLTCAFRYGREDLDVLGLTFRKDLFVANVQSFPPAPEDKKPLTRLQERLIKKLGEHAYPFTFEIPPNLPCSVTLQPGPEDTGKACGVDYEVKAFCAENLEEKIHKRNSVRLVIRKVQYAPERPGPQPTAETTRQFLMSDKPLHLEASLDKEIYYHGEPISVNVHVTNNTNKTVKKIKISVRQYADICLFNTAQYKCPVAMEEADDTVAPSSTFCKVYTLTPFLANNREKRGLALDGKLKHEDTNLASSTLLREGANREILGIIVSYKVKVKLVVSRGGLLGDLASSDVAVELPFTLMHPKPKEEPPHREVPEHETPVDTNLIELDTNDDDIVFEDFARQRLKGMKDDKEEEEDGTGSPRLNDR	soluble
MSLDDERTQVLLKRDSEVFLHQAMSTPCLDTLDAAEGIYIQDATGKKYMDFHGNNVHQLGYGHPHVIKRVQEQIAKLPFSPRRFTNETAIECAEKLTQICGGELNRVLFAPGGTSAVGMALKLARHITGNYKVVSLWDSFHGASLDAISVGGEACFRQGMGPLMAGVERIPPAVSYRGAFPVADGSDVHYADYLEYVIEKEGGVGAFIAEAVRNTDVQVPSKAYWKRIREICDKHNVMLIIDDIPNGMGRSGEWFTYQAYDIEPDMLCIGKGLGGGLVPIAAMVTKDKYNTAEQISMGHYTHEKSPIGCAAALATMEAIEQDGLLDKVKADSQFMREKLLEMKAKYPVIGDVRGIGMLWGIELVTDHESKARAYDEAEAVLYQCLNNGVSFKVSQGNVIQLSPPLIITREQLTEALAIFEEAIAKVCKEGHHHHHH	not soluble
MSLASFPHRNLTWNDINFVHTTDTHGWYSGHINQPLYHANWGDFISFTTHMRRIAHSRNQDLLLIDSGDRHDGNGLSDITSPNGLKSTPIFIKQDYDLLTIGNHELYLWENSKQEYETVVNHFQDKYVCSNVDIRLDNGLFVPLGLKYKYFTTPIRGIRVMAFGFLFDFKRFNSGTRVTPMAETIHEPWFQEALKHEVDLIIIVGHTPISHNWGEFYQVHQYLRQFFPDTIIQYFGGHSHIRDFTVFDSLSTGLQSGRYCETVGWTSVNLDKADLNLPVRQRFSRSYIDEGHHHHHH	not soluble
MSTVLGTFKRMNEGWTQWPSYGHAFGVRLHKLRRLRGLTQDGLAEIANLSRNQISNLERNENSATKSSDPTMSTIYRLARALHVPPAALMPAVGDYVTDICQDTGHELPIDIAWPTSSQDTQKFSIQYRYRYWDEQSPLFDDEDWDDDHADDPDFGIAVMPETSDNNDADTTKGGDDTEDRGDVDKRDDDPLA	not soluble
MAFEFKLPDIGEGIHEGEIVKWFIKPGDEVNEDDVLLEVQNDKAVVEIPSPVKGKVLEVLVEEGTVAVVGDTLIKFDAPGYENLKFKGDDHDEAPKAEATPAATAEVVNERVIAMPSVRKYARENGVDIHKVAGSGKNGRIVKADIDAFANGGQAVAATEAPAAVEATPAAAKEEAPKAQPIPAGEYPETREKMSGIRKAIAKAMVNSKHTAPHVTLMDEVDVTELVAHRKKFKAVAADKGIKLTYLPYVVKALTSALREYPMLNTSLDDASQEVVHKHYFNIGIAADTDKGLLVPVVKDTDRKSIFTISNEINDLAGKAREGRLAPAEMKGASCTITNIGSAGGQWFTPVINHPEVAILGIGRIAEKPVVKNGEIVAAPVLALSLSFDHRLIDGATAQKALNQIKRLLNDPQLLVMEA	not soluble
MGNESTPLRTITQALKLARPGTVIQLTPGNYSVETGETFPLMLKPGVSIQGNTSNKGQEVKIQGGGLFLSRSFGGQNVAIVGANQAGLTGVTITNPNPRGYGLWIESSNPVISENTFTGNTQDGISVTGNSATTITKNYFYRNGANGITIGGNSPAQVRENLFEETGFGINVAQNAVPMLVSNQIQNNRSGIIVQANARPILRNNLIQGSKEDGVVAIAQAMPDLGNATEAGGNEFRNNARHDINASAAKQAIAAVGNILDTKRITGKVALEHHHHHH	not soluble
SANPKLLGLELSEAEAIGADSARFEELLLQASKELQQAQTTRPESTQIQPQPGFCIKTNSSEGKVFINICHSPSIPPPADVTEEELLQMLEEDQAGFRIPMSLGEPHAELDAKGQGCTAYDVAVNSDFYRRMQNSDFLRELVITIAREGLEDKYNLQLNPEWRMMKNRPFMGSISQQNIRSEQRPRIQELGDLYTPAPGRAESGPEKPHLNLWLEAPDLLLAEIDLPKLDGALGLSLEIGENRLVMGGPQQLYHLDAYIPLQINSHESKAAFHRKRKQLMVAMPLLLVPS	soluble
MSPKARWQFWIDRGGTFTDIVARSPDGKLITHKLLSEDPAHYEDAAMHGIRQILGLSENEPFPSEDVEAIKMGTTVGTNALLERKGERIVLVITKGFGDALRIGYQNRPDIFSQKIELPDQLYERVIEVSGRYSADGEEIVPLELESAKKELEEAYKAGIRSAAVILMHSYRYPEHELMLGRLATEIG	not soluble
GANTTETPVKDVELDGRWDDPIRSAATNCPITVFTDGYLLTLKNASPDRDMTIRITDMAKGGVVYENDIPEVQSAYITISIANFPAEEYKLEITGTPSGHLTGYFTKE	soluble
EPNTPFGHTPPKGLPQDEAALDIEDAVHGALEGAGFVHYETSAFAKPAMQCRHNLNYWQFGDYLGIGAGAHGKISYPDRIERTVRRRHPNDYLALMQSQPSEAVERKTVAAEDLPFEFMMNALRLTDGVPAAMLQERTGVPSAKIMAQIETARQKGLLETDPAVFRPTEKGRLFLNDLLQCFL	not soluble
MATVTTHASASIFRPCTSKPRFLTGSSGRLNRDLSFTSIGSSAKTSSFKVEAKKGEWLPGLASPDYLTGSLAGDNGFDPLGLAEDPENLKWFVQAELVNGRWAMLGVAGMLLPEVFTKIGIINVPEWYDAGKEQYFASSSTLFVIEFILFHYVEIRRWQDIKNPGSVNQDPIFKQYSLPKGEVGYPGGIFNPLNFAPTQEAKEKELANGRLAMLAFLGFVVQHNVTGKGPFENLLQHLSDPWHNTIVQTFN	soluble
GSHMASMTGGQQMGRGSMVKVLTACGNGMGSSMVIKMKVENALRQLGVSDIESASCSVGEAKGLASNYDIVVASNHLIHELDGRTNGKLIGLDNLMDDNEIKTKLEEALK	soluble
MRLILLALLALVFPAVAQEDMPAKVWLEKMSQALKEKEFKASIIQLQADHIRPLVYLHGKVNNQEVAFLEYLNGPPKNAVRVGNRVTFIEHDQPAYSILSNHIQGVWPAAFSSQMSDLEVGYQFVMGGRTRIAGRPGQMIRLLPNDEYRYGFQIWLDMDTYLPLRYDMLTQDKQLLEQLMVIELIEFSEPPSILQEAYKQEWPAVIDQAERQDGQNWQFSWLPAGFSVVVRDHHRLIGSHEAVEYIALTDGLANISIYVARAGSTPLPEELITRNGLSLVAEKVGNAEVVAVGKVPTETLARIAKSLMLK	not soluble
MKIVTTVQEMQHITKELRASGKSIGFVPTMGYLHEGHATLLRKAREENEIVVLSVFVNPLQFGPNEDLDRYPRDIDRDENVAKENGVDYLFYPSVEEMYPAEQTTTVEVVKRTDVLCGKQRPGHFAGVATVLMKLFNITLPTRAYFGMKDAQQVAVIEGFVADFNIPVIIVPVDIVREEDGLAKSSRNVYLSQKERKEAPHLYRSLCMAKERIEAGERNAEIITTLVKEYIETYTKGTVDYADLYAYPSLQVVDQIEGRIILAIAVKFENVRLIDNITLTVK	not soluble
PSVQVPQSTILYASDGSKLGETNYGEKRYWVPLKDMNPTIVKATVAIEDQNFYDHHGFDYKRMAGAALADLKAFAKVQGASTITQQYARNLYLEHDKTWKRKWNEAFYTIRLEQNYSKDEILEGYLNTIYYGHGAYGIEAASRLYFGKHAKNLTDAEAALLAGIPKGPSGY	not soluble
MPSTNLTKRDWEKDHVYLVQFPRAGCIPSPSPYAFKVETFLRVADIPYTNINNEFKKMSARGQIPFIELNGRQHADSTIIIDNLTEHFHKSDLEDLSASDKAIARAFFALLEHHLCWVSLYSRGQDFGWLATDTGFGRLLTGIKGFAFKNFIVKSFTKKVRGRAAAQGMGTFSREEVLDQAKKDLDAISTQLGDKPYLFGSSIKTIDVTAFAHLAELIYTPQFSPEIRAYIDEKVPNVMEYVIRIKEKYWPDWEETTNTMNMATVWKKA	not soluble
MGSDKIHHHHHHMRVGATLARAIALKYNKKLVPVNHGIGHIEIGYLTTEARDPLILYLSGGNTIITTFYKGRFRVFGETLDIALGNMMDVFVREVSLAPPYIINGIHVIDICAEKGNKLLKLPYVVKGQDMSFSGLLTAALRVVGKEKLEDICYSVREIAFDMLLEATERALALTSKKELMIVGGVAASVSLRKKLEELGKEWNVQIKIVPPEFAGDNGAMIAYAGMLAASKGVFIDVDKSYIRPRWRVDEVDIPWRN	not soluble
